Target: HLA-A*11:01 on TAP2-KO HLA class I monoallelic TISI cells (human | human (endogenous in TISI))
Assay: flow cytometry on cells

Binder	ΔHLA (% control) [%]
VVGAAGVGK [KRAS_G12A epitope peptide …]	218
KAISTRDPLSK	127
VVGACGVGK [KRAS_G12C epitope peptide …]	234
VVGASGVGK [KRAS_G12S epitope peptide …]	219
VVGAGDVGK	181

The remaining lines, values ahead:

ΔHLA (% control) [%]	Binder
195	VVVGAGDVGK
124	ISTRDPLSK
107	SSCMGSMNR [TP53_G245S epitope peptide …]

Reference: PMC10320429
